Our source for the Kd, stoichiometry N (tubulin dimer:formin dimer) and percent of the actin in the pellet values is paper PMC3226476.

Experiment in all cases: co-sedimentation
Experiment [1] concerns the target Taxol-stabilized microtubules (polymerized porcine brain tubulin) (porcine (purified from brain)) (UniProt P02550).
For experiment [2] the target is unchanged. The source holds these as a separate data set.
Experiment [3] concerns the target mDia1-FH1FH2C (mouse, amino acids 548-1255) (mouse) (UniProt O08808).
The target of experiment [4] is mDia2-FH1FH2C (mouse, 521-1171) (mouse) (UniProt Q9Z207).
For experiment [5], the target named is INF2-FH1FH2 (human, 469-941) (human) (UniProt Q27J81).

Where two headings read alike, the source gives them in different places.

The Kd is the concentration at which binding is half-saturated. A low value points to higher affinity. For the substance “GST-INF2-Cterm (human CAAX variant, 941-1249) (from UniProt Q27J81 941-1249) (domain or fragment)”, the Kd in experiment [1] is over 20 µM.

“GST-mDia1-Cterm (1149-1255) (from UniProt O08808 1149-1255) (domain or fragment)” gave a Kd in experiment [1] of over 20 µM.

“GST-mDia2-Cterm (1009-1171) (from UniProt Q9Z207 1009-1171) (domain or fragment)” returned a Kd in experiment [2] of 0.71 µM. In experiment [1], this substance came in with a Kd of 710 µM and a stoichiometry N (tubulin dimer:formin dimer) of 0.6.

“LatB-stabilized actin monomers (rabbit skeletal muscle actin) (from UniProt P68135 1-377) (natural protein)”: the percent of the actin in the pellet in experiment [3], in experiment [4] and in experiment [5] was 10% in each case.

“mDia1-FH1FH2C (mouse, amino acids 548-1255) (from UniProt O08808 548-1255) (domain or fragment)”: the stoichiometry N (tubulin dimer:formin dimer) in experiment [1] came to 3.09.
